B1: BAR/IMD domain-containing adapter protein 2 (Homo sapiens), Q9UQB8-4 (parent)
chain: MSLSRSEEMHRLTENVYKTIMEQFNPSLRNFIAMGKNYEKALAGVTYAAKGYFDALVKMGELASESQGSKELGDVLFQMAEVHRQIQNQLEEMLKSFHNELLTQLEQKVELDSRYLSAALKKYQTEQRSKGDALDKCQAELKKLRKKSQGSKNPQKYSDKELQYIDAISNKQGELENYVSDGYKTALTEERRRFCFLVEKQCAVAKNSAAYHSKGKELLAQKLPLWQQACADPSKIPERAVQLMQQVASNGATLPSALSASKSNLVISDPIPGAKPLPVPPELAPFVGRMSAQESTPIMNGVTGPDGEDYSPWADRKAAQPKSLSPPQSQSKLSDSYSNTLPVRKSVTPKNSYATTENKTLPRSSSMAAGLERNGRMRVKAIFSHAAGDNSTLLSFKEGDLITLLVPEARDGWHYGESEKTKMRGWFPFSYTRVLDSDGSDRLHMSLQQGKSSSTGNLLDKDDLAIPPPDYGAASRAFPAQTASGFKQRPYSVAVPAFSQGLDDYGARSMSSGSGTLVSTV

Variants of: B1
Conditions: with vasp_human VASP

Row | effect of a mutation on the interaction | Variant
1 | disrupting interaction | MSLSRSEEMHRLTENVYKTIMEQFNPSLRNFIAMGKNYEKALAGVTYAAKGYFDALVKMGELASESQGSKELGDVLFQMAEVHRQIQNQLEEMLKSFHNELLTQLEQKVELDSRYLSAALKKYQTEQRSKGDALDKCQAELKKLRKKSQGSKNPQKYSDKELQYIDAISNKQGELENYVSDGYKTALTEERRRFCFLVEKQCAVAKNSAAYHSKGKELLAQKLPLWQQACADPSKIPERAVQLMQQVASNGATLPSALSASKSNLVISDPIPGAKPLPVPPELAPFVGRMSAQESTPIMNGVTGPDGEDYSPWADRKAAQPKSLSPPQSQSKLSDSYSNTLPVRKSVTPKNSYATTENKTLPRSSSMAAGLERNGRMRVKAIFSHAAGDNSTLLSFKEGDLITLLVPEARDGGHYGESEKTKMRGWFPFSYTRVLDSDGSDRLHMSLQQGKSSSTGNLLDKDDLAIPPPDYGAASRAFPAQTASGFKQRPYSVAVPAFSQGLDDYGARSMSSGSGTLVSTV [W413G]

— IntAct's records for PubMed 24076653
